The subject of the data set is MS2 coat protein. Put plainly: apparent KD of MS2 coat protein; designed switch direction (-1 OFF switch, 1 ON switch): -1; higher = weaker reporter binding. The method, boiled down: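 An oligonucleotide input, 200 uM small-molecule ligand, or no input was present during titration of SNAP-549-labelled MS2 coat protein, which was doubled from 0.7 or 1.5 nM to 3 µM. Designed RNA switches had been transcribed on Illumina chips by stalled E. coli RNA polymerase. Apparent KD per design is the median over clusters of curves fitted to normalised cluster fluorescence.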

Where [1] appears, read: Eterna round: R95, input ligand: FMN 200 uM.
Setting [2] is: Eterna round: R95, input ligand: microRNA oligo, concentration not stated.
The mark [3] stands for this setting: Eterna round: R95, input ligand: none.
The mark [4] stands for this setting: input ligand: microRNA oligo, concentration not stated.

The results in this text go back to the supplement of paper PMC9170038.

In the case of “AGUACUAACACGAUAGUGUUAGUACUAUAAGCUUGUGUUACAUGAGGAUCACCCAUGUCCUCAUAAGCUCGUCUUAG [Mat - Sensor v3 - Turn-off var 2 - D66] (puzzle: Sensor v3, turn-off variant 2)”, the “apparent KD of MS2 coat protein” value is, setting by setting: under setting [1], 39.8 nM; under setting [2], 83.2 nM; under setting [3], 41.6 nM.
Consider “AGUACUAACACGUAAGUGUUAGUACAAUAAGCUUGUGAAACAUGAGGAUCACCCAUGUCCUCAUAAGCUCGUCUUAU [salish99_TOv2_r3_025] (puzzle: Sensor v3, turn-off variant 2)”, for which the “apparent KD of MS2 coat protein” value came to 17.9 nM under setting [1], 659 nM under setting [2] and 15.4 nM under setting [3].
As for “AGUACUAUCACGAAAGUGAUAGUACAAAUAAGCUUUAGAACAUGAGGAUCACCCAUGUCCUCUUAAGCUCGUCUUAU [Mat - Sensor v2 -ver2- JL mod - D56] (Eterna round: R96, puzzle: Sensor v2, turn-off variant 2)”, the “apparent KD of MS2 coat protein” value reads like this: (input ligand: FMN 200 uM) 14.8 nM; under setting [4], 143 nM; (input ligand: none) 17.1 nM.
As for “AGUACUAUCACGAAAGUGAUAGUACAAAUAGCAAGUGAAACAUGAGGAUCACCCAUGUCCUCAUUUGCUCGUCUUAU [Mat - Sensor v2 -ver2- JL mod - D65] (Eterna round: R96, puzzle: Sensor v2, turn-off variant 2)”, the “apparent KD of MS2 coat protein” value (input ligand: FMN 200 uM) was determined as 12.1 nM, the “apparent KD of MS2 coat protein” value under setting [4] is 409 nM and the “apparent KD of MS2 coat protein” value (input ligand: none) was 14.3 nM.
On to “AGUACUAUGCGAGCUGACUUGCGUAGUGCAGCAAGUGAAACAUGAGGAUCACCCAUGUCCUCAUUUGCUCGUCUUAU [Mat - Sensor v3 - Turn-off var 2 - D1] (Eterna round: R96, puzzle: Sensor v3, turn-off variant 2)”, for which the “apparent KD of MS2 coat protein” value reads like this: (input ligand: FMN 200 uM) 31.1 nM; under setting [4], 662 nM; (input ligand: none) 34.1 nM.
Take “AGUACUAUGCGAGCUGACUUGCGUAGUGCAGCAAGUGAAACAUGAGGAUCACCCAUGUCCUCAUUUGCUCGUCUUAU [Mat - Sensor v3 - Turn-off var 2 - D1] (puzzle: Sensor v3, turn-off variant 2)”: the “apparent KD of MS2 coat protein” value by setting is: under setting [1], 35.3 nM; under setting [2], 453 nM; under setting [3], 30.8 nM.
Regarding “AGUACUCACACGAAAGUGUUAGUACAAUAAGCUUGUGAAACAUGAGGAUCACCCAUGUCCUCAUAAGCUCGUCUUAU [salish99_TOv2_r3_018] (Eterna round: R96, puzzle: Sensor v3, turn-off variant 2)”, the “apparent KD of MS2 coat protein” value (input ligand: FMN 200 uM) worked out at 16.2 nM, the “apparent KD of MS2 coat protein” value under setting [4] was determined as 430 nM and the “apparent KD of MS2 coat protein” value (input ligand: none) was determined as 18.1 nM.
As for “AGUACUCACACGAAAGUGUUAGUACAAUAAGCUUGUGAAACAUGAGGAUCACCCAUGUCCUCAUAAGCUCGUCUUAU [salish99_TOv2_r3_018] (puzzle: Sensor v3, turn-off variant 2)”, the “apparent KD of MS2 coat protein” value stood at 17.6 nM under setting [1], 1380 nM under setting [2] and 17.1 nM under setting [3].
On to “AGUACUGACACGAAAGUGUUAGUACAAUAAGCUUGUGAAACAUGAGGAUCACCCAUGUCCUCAUAAGCUCGUCUUAU [salish99_TOv2_r3_017] (Eterna round: R96, puzzle: Sensor v3, turn-off variant 2)”, for which the “apparent KD of MS2 coat protein” value (input ligand: FMN 200 uM) stood at 15.9 nM, the “apparent KD of MS2 coat protein” value under setting [4] is 469 nM and the “apparent KD of MS2 coat protein” value (input ligand: none) is 17.9 nM.
Regarding “AGUACUGACACGAAAGUGUUAGUACAAUAAGCUUGUGAAACAUGAGGAUCACCCAUGUCCUCAUAAGCUCGUCUUAU [salish99_TOv2_r3_017] (puzzle: Sensor v3, turn-off variant 2)”, the “apparent KD of MS2 coat protein” value is, setting by setting: under setting [1], 16 nM; under setting [2], 1200 nM; under setting [3], 13.8 nM.
Turning to “AGUACUGGCGCGUCGGUGUUGGUACAAUAAGCUUGUGAAACAUGAGGAUCACCCAUGUCCUCAUAAGCUCGUCUUAU [salish99_TOv2_r2_083] (puzzle: Sensor v3, turn-off variant 2)”, the “apparent KD of MS2 coat protein” value runs as follows: under setting [1], 16.9 nM; under setting [2], 600 nM; under setting [3], 16.5 nM.
In the same order, the values of “AGUACUUACUCGAUAGUGUUAGUACAAUAAGCUUGUGAAACAUGAGGAUCACCCAUGUCCUCAUUAGCUCGUCUUAU [salish99_TOv2_r3_1006] (puzzle: Sensor v3, turn-off variant 2)” are 206 nM, 758 nM and 199 nM.
As to “AGUACUUUCACGAAAGUGAAAGUACAAAUGAGCUUUUGAACAUGAGGAUCACCCAUGUCCUCAUAAGCUCGUCUUAA [Mat - Sensor v2 - var 2 - Mod - D175] (Eterna round: R96, puzzle: Sensor v2, turn-off variant 2)”, the “apparent KD of MS2 coat protein” value was found to be 28.3 nM (input ligand: FMN 200 uM), 458 nM under setting [4] and 30.7 nM (input ligand: none).
With “AGUAGAUCUACGCUUGCGUGGAUCUGCUAUGCAGGUGUUACAUGAGGAUCACCCAUGUCCUCAUUUGCUCGUCUUAU [JL turnoff v2 99.14] (puzzle: Sensor v3, turn-off variant 2)”, the “apparent KD of MS2 coat protein” value is, setting by setting: under setting [1], 133 nM; under setting [2], 356 nM; under setting [3], 138 nM.
As to “AGUAGUUACGCAGGAUAUGAGGAUCACCCAUAGAAGGAUAUCGAAAGAGAAGGUCUGAGGAUUACCCAGAAGGGCGUGACUACA [pwkr exNG2 2xF5 2xFMN.5] (Eterna round: R96, puzzle: Exclusion NG 2)”, the “apparent KD of MS2 coat protein” value came to 647 nM (input ligand: FMN 200 uM), 113 nM under setting [4] and 136 nM (input ligand: none).
The like results for “AGUAGUUGUUUCCGUUCUUACAUGAGGAUCACCCAUGUUUCUUGACGUGCACGCGAUGCUCGUCAGACUACCAGAUG [salish99_TOv1_r3_057] (Eterna round: R96, puzzle: Sensor v3, turn-off variant 1)” were, in that order, 60.5 nM, 37.4 nM and 57 nM.
As to “AGUAGUUGUUUCCGUUCUUACAUGAGGAUCACCCAUGUUUCUUGACGUGCACGCGAUGCUCGUCAGACUACCAGAUG [salish99_TOv1_r3_057] (puzzle: Sensor v3, turn-off variant 1)”, the “apparent KD of MS2 coat protein” value runs as follows: under setting [1], 57.6 nM; under setting [2], 87.8 nM; under setting [3], 81.7 nM.
For “AGUAGUUGUUUCCGUUCUUACAUGAGGAUCACCCAUGUUUCUUGUCGUGCUCGCGUUGCUCGUCAGACUACCUGUUG [salish99_TOv1_r3_062] (puzzle: Sensor v3, turn-off variant 1)”, the “apparent KD of MS2 coat protein” value is, setting by setting: under setting [1], 69.8 nM; under setting [2], 88.6 nM; under setting [3], 105 nM.
Take “AGUAUCUAUCAUGAGAGUGGUAGGUACAACAGGUGGGAAACAUGAGGAUCACCCAUGUCCUCAUUUGCUCGUCUUAU [Grok-var2-01] (puzzle: Sensor v3, turn-off variant 2)”: the “apparent KD of MS2 coat protein” value under setting [1] was 550 nM, the “apparent KD of MS2 coat protein” value under setting [2] is 144 nM and the “apparent KD of MS2 coat protein” value under setting [3] came to 764 nM.
On to “AGUAUGCGUGUCAGGAUAUCAAUGGCUCUACCCAAUGAGAAGGGACAUGAGGAUCACCCAUGUAUGAGCCUAAA [Zatelaveus] (puzzle: Brourd's mod of Exclusion 4)”, for which the “apparent KD of MS2 coat protein” value was determined as 15.9 nM under setting [1], 14.1 nM under setting [2] and 14.5 nM under setting [3].
With “AGUCAGGCGGUAGGAUAUCCAUAUCGAGUGACCCUUUCAUAACAUGAGGAUCACCCAUGUCGGUGGGAGAAGGGCCGUACGGCA [Mat - Exclusion NG 2 - Mod of JL - D68] (Eterna round: R96, puzzle: Exclusion NG 2)”, the “apparent KD of MS2 coat protein” value runs as follows: (input ligand: FMN 200 uM) 116 nM; under setting [4], 52.3 nM; (input ligand: none) 89.3 nM.
In the same order, the values of “AGUCAGGCGGUAGGAUAUCCAUAUCGAGUGACCCUUUCAUAACAUGAGGAUCACCCAUGUCGGUGGGAGAAGGGCCGUACGGCG [JL ViennaUCT Atra mod 4] (Eterna round: R96, puzzle: Exclusion NG 2)” are 203 nM, 84.2 nM and 103 nM.
In the case of “AGUCCUGGAGUUAGGAUAUGGCGUAUCGCUGCGCUUCAGAAGGGACUUGAGGAUCACCCAAGUAGCCGUGAGGG [salish99_bmod_ex4_r4_008] (Eterna round: R97, puzzle: Brourd's mod of Exclusion 4)”, the “apparent KD of MS2 coat protein” value is 81.7 nM (input ligand: FMN 200 uM) and 82.4 nM (input ligand: none).
“AGUCGAAAGACAAAAACAGACAUGAGGAUCACCCAUGUAAAGGGUGAACAAGCCACCCGCUCGUCUUAAAAAAAAAA [Mat - Sensor v2 - JL mod - D25] (Eterna round: R96, puzzle: Sensor v2, turn-off variant)”: the “apparent KD of MS2 coat protein” value (input ligand: FMN 200 uM) came to 136 nM, the “apparent KD of MS2 coat protein” value under setting [4] was found to be 69.2 nM and the “apparent KD of MS2 coat protein” value (input ligand: none) was 114 nM.
In the same order, the values of “AGUCGGAAGACAAAAGGAAACAUGAGGAUCACCCAUGUAAAGGGUGAAAACAAGCCACCCGCUCGUCUUAAAGAAAA [Mat - Sensor v2- JL mod - D44] (Eterna round: R96, puzzle: Sensor v2, turn-off variant)” are 40.7 nM, 144 nM and 46.1 nM.
Consider “AGUCGGCGAGGAUAUACAUGAGGAUCACCCAUGUGUGAUCCUAGACCUGUAGGUCCAUGUAGAAGGCGCUGACA [Exclusion 3 - Was a mod at one point] (puzzle: Exclusion 3)”, for which the “apparent KD of MS2 coat protein” value under setting [2] turned out to be 18.8 nM.
